# B1: canonical transient receptor potential channel 3 (TRPC3), TRPC3-YFP-3xFLAG construct (natural protein, human, UniProt Q13507-3 1-848, looked up)
# chain: MEGSPSLRRMTVMREKGRRQAVRGPAFMFNDRGTSLTAEEERFLDAAEYGNIPVVRKMLEESKTLNVNCVDYMGQNALQLAVGNEHLEVTELLLKKENLARIGDALLLAISKGYVRIVEAILNHPGFAASKRLTLSPCEQELQDDDFYAYDEDGTRFSPDITPIILAAHCQKYEVVHMLLMKGARIERPHDYFCKCGDCMEKQRHDSFSHSRSRINAYKGLASPAYLSLSSEDPVLTALELSNELAKLANIEKEFKNDYRKLSMQCKDFVVGVLDLCRDSEEVEAILNGDLESAEPLEVHRHKASLSRVKLAIKYEVKKFVAHPNCQQQLLTIWYENLSGLREQTIAIKCLVVLVVALGLPFLAIGYWIAPCSRLGKILRSPFMKFVAHAASFIIFLGLLVFNASDRFEGITTLPNITVTDYPKQIFRVKTTQFTWTEMLIMVWVLGMMWSECKELWLEGPREYILQLWNVLDFGMLSIFIAAFTARFLAFLQATKAQQYVDSYVQESDLSEVTLPPEIQYFTYARDKWLPSDPQIISEGLYAIAVVLSFSRIAYILPANESFGPLQISLGRTVKDIFKFMVLFIMVFFAFMIGMFILYSYYLGAKVNAAFTTVEESFKTLFWSIFGLSEVTSVVLKYDHKFIENIGYVLYGIYNVTMVVVLLNMLIAMINSSYQEIEDDSDVEWKFARSKLWLSYFDDGKTLPPPFSLVPSPKSFVYFIMRIVNFPKCRRRRLQKDIEMGMGNSKSRLNLFTQSNSRVFESHSFNSILNQPTRYQQIMKRLIKRYVLKAQVDKENDEVNEGELKEIKQDISSLRYELLEDKSQATEELAILIHKLSEKLNPSMLRCE
# notes: a TEV site stands between the tags and TRPC3 by the plasmid's name; The protein was purified by its FLAG tag; no TEV cleavage step is described, so the tags were probably still on the protein in the electron microscopy; also called TRPC3–3 x FLAG–YFP; 3xFLAG-YFP; source: Expi293F, transiently transfected; membranes extracted with DDM or DDDG
# Target: the molecule itself
# Test: negative-stain electron microscopy; purified TRPC3 at 0.1 mg/mL, extracted from Expi293F membranes with DDM or with DDDG, on a TEM grid, stained with 1% uranyl acetate
protein,measurement,value
B1,stoichiometry N,4

# Reference: PMC12325699, “Utilizing native nanodiscs to isolate active TRPC3 channels and expand structural analysis capabilities” (Scientific Reports, 2025)
